Measurements: the supplement of paper PMC6379048
pKd: −log10 of the molar value.

Legend:
Test in all cases: Kd (EC50 corrected by depletion factor)
RPS5 = RPS5 (UniProt P46782)
How it was run: (§1)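 HEK293-FT lysate (2.5 mg protein/well) was treated with free RNA oligos (0 nM to 30 μM) for 1 h at 4°C, then with the same oligos on NHS-Sepharose beads for 30 min at 4°C. Bound proteins were quantified by label-free LC-MS/MS relative to the control. EC50 came from a four-parameter log-logistic fit, and Kd is EC50 times a protein-dependent depletion factor.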

AGO1 = AGO1 (UniProt Q9UL18)
How it was run: as §1

SF3B2 = target: T1, SF3B2 (UniProt Q13435)
T1 sequence: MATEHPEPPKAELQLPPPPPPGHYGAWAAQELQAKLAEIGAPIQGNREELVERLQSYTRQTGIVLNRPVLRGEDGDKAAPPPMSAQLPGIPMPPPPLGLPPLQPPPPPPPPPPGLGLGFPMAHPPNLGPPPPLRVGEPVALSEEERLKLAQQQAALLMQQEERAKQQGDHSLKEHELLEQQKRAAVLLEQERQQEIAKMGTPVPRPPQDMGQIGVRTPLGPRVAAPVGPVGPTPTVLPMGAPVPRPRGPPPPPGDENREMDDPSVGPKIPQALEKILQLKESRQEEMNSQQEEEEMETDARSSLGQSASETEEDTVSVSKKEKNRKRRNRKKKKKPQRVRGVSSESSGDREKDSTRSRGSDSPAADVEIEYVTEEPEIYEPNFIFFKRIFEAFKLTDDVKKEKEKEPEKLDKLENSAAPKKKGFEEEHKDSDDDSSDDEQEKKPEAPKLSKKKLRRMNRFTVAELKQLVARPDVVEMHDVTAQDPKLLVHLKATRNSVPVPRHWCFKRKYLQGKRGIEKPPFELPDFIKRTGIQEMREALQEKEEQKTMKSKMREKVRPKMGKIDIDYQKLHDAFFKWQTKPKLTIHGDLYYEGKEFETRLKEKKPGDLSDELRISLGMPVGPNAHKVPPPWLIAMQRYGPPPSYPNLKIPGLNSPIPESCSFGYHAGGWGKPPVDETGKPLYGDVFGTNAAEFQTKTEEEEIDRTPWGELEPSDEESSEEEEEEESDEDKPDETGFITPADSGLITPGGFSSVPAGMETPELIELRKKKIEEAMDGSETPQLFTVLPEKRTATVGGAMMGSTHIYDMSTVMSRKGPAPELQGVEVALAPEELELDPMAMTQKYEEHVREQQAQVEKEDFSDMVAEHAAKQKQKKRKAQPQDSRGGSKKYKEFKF
How it was run: as §1

PLOD1 = target: T2, PLOD1 (UniProt Q02809)
T2 sequence: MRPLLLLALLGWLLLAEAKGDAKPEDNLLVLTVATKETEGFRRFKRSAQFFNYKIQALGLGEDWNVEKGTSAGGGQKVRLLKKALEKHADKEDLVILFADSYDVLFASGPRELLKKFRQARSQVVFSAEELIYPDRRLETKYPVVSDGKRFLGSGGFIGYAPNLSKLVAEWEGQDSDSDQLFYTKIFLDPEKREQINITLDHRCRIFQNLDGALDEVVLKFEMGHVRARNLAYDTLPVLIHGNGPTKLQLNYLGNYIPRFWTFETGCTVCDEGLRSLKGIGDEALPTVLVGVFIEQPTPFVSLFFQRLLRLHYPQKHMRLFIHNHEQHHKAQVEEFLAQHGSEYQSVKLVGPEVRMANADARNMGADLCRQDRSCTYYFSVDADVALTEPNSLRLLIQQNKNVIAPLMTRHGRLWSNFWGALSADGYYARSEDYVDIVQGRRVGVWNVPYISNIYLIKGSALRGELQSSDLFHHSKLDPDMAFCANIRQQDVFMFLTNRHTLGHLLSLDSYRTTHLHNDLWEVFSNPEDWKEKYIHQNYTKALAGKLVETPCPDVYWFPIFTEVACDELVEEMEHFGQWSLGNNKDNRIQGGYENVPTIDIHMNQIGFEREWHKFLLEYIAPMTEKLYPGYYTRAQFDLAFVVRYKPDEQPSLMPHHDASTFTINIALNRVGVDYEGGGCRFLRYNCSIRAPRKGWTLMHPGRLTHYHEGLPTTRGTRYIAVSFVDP
How it was run: as §1

PRPF31 = target: T3, PRPF31 (UniProt Q8WWY3)
T3 sequence: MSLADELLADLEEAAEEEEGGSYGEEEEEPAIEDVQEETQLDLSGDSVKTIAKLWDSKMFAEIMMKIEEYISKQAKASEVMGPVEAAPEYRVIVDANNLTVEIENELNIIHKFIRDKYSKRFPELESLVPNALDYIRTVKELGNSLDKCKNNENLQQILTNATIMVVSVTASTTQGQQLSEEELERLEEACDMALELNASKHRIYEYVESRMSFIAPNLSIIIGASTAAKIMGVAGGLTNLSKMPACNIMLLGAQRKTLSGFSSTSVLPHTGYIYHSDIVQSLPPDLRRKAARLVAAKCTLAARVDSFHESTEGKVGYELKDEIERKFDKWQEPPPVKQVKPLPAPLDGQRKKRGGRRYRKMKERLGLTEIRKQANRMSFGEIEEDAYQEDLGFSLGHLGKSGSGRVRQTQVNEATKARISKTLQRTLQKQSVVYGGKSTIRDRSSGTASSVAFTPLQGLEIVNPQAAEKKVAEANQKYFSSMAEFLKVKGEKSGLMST
How it was run: as §1

Sequence: CUGUCCU
- pKd (RPS5): 6.84

Sequence: AAUAAA
- pKd (AGO1): 7.10
- pKd (SF3B2): 6.14

Sequence: UAUUUAU
- pKd (PLOD1): 5.35
- pKd (PRPF31): 5.55
